{
  "source": "patent US20240067947",
  "proteins": {"B1": {"name": "mrADAMTS13 (truncated modified human recombinant ADAMTS13) (protein)", "chain": "AAGGILHLELLVAVGPDVFQAHQEDTERYVLTNLNIGAELLRDPSLGAQFRVHLVKMVILTEPEGAPNITANLTSSLLSVCGWSQTINPEDDTDPGHADLVLYITRFDLELPDGNRQVRGVTQLGGACSPTWSCLITEDTGFDLGVTIAHEIGHSFGLEHDGAPGSGCGPSGHVMASDGAAPRAGLAWSPCSRRQLLSLLSAGRARCVWDPPRPQPGSAGHPPDAQPGLYYSANEQCRVAFGPKAVACTFAREHLDMCQALSCHTDPLDQSSCSRLLVPLLDGTECGVEKWCSKGRCRSLVELTPIAAVHGRWSSWGPRSPCSRSCGGGVVTRRRQCNNPRPAFGGRACVGADLQAEMCNTQACEKTQLEFMSQQCARTDGQPLRSSPGGASFYHWGAAVPHSQGDALCRHMCRAIGESFIMKRGDSFLDGTRCMPSGPREDGTLSLCVSGSCRTFGCDGRMDSQQVWDRCQVCGGDNSTCSPRKGSFTAGRAREYVTFLTVTPNLTSVYIANHRPLFTHLAVRIGGRYVVAGKMSISPNTTYPSLLEDGRVEYRVALTEDRLPRLEEIRIWGPLQEDADIQVYRRYGEEYGNLTRPDITFTYFQPKPRQAKGELGTELGSEGKPIPNPLLGLDSTRTGHHHHHH"}, "B2": {"name": "Truncated wild-type ADAMTS13 (protein)", "chain": "AAGGILHLELLVAVGPDVFQAHQEDTERYVLTNLNIGAELLRDPSLGAQFRVHLVKMVILTEPEGAPNITANLTSSLLSVCGWSQTINPEDDTDPGHADLVLYITRFDLELPDGNRQVRGVTQLGGACSPTWSCLITEDTGFDLGVTIAHEIGHSFGLEHDGAPGSGCGPSGHVMASDGAAPRAGLAWSPCSRRQLLSLLSAGRARCVWDPPRPQPGSAGHPPDAQPGLYYSANEQCRVAFGPKAVACTFAREHLDMCQALSCHTDPLDQSSCSRLLVPLLDGTECGVEKWCSKGRCRSLVELTPIAAVHGRWSSWGPRSPCSRSCGGGVVTRRRQCNNPRPAFGGRACVGADLQAEMCNTQACEKTQLEFMSQQCARTDGQPLRSSPGGASFYHWGAAVPHSQGDALCRHMCRAIGESFIMKRGDSFLDGTRCMPSGPREDGTLSLCVSGSCRTFGCDGRMDSQQVWDRCQVCGGDNSTCSPRKGSFTAGRAREYVTFLTVTPNLTSVYIANHRPLFTHLAVRIGGRYVVAGKMSISPNTTYPSLLEDGRVEYRVALTEDRLPRLEEIRIWGPLQEDADIQVYRRYGEEYGNLTRPDITFTYFQPKPRQA"}},
  "target": "T1, VWF-73 FRETS substrate, P04275",
  "T1 chain": "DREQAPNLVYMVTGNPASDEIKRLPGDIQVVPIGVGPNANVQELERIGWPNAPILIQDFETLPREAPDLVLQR",
  "data": [
    {"protein": "B1", "values": [
      {"measurement": "ADAMTS13 activity (VWF-73 FRETS assay)", "result": "demonstrated enhanced activity of mrADAMTS13 compared to truncated wild type ADAMTS13"},
      {"measurement": "ADAMTS13 specific activity of mrADAMTS13 released from PLGA microparticles (FRETS VWF-73 fluorescent emission)", "result": "This data demonstrates active ADAMTS13 enzyme is present in all samples including at 120 hours"}
    ]},
    {"protein": "B2", "values": [
      {"measurement": "ADAMTS13 activity (VWF-73 FRETS assay)", "result": "demonstrated enhanced activity of mrADAMTS13 compared to truncated wild type ADAMTS13"}
    ]}
  ]
}
